Source: the Immune Epitope Database (IEDB)

What was measured:
Experiment in all cases: IEDB peptide-MHC binding, purified MHC/competitive/fluorescence; filed as Kd, often an IC50 or EC50 that approximates it; ≥ and ≤ were set here for values at or beyond the usual limits of such assays
Conditions in all cases: source organism: Entamoeba histolytica HM-1:IMSS
HLA-A*01:01 = molecular target: HLA-A*01:01
HLA-A*30:01 = molecular target: HLA-A*30:01
HLA-B*18:01 = molecular target: HLA-B*18:01
HLA-A*02:11 = molecular target: HLA-A*02:11
HLA-B*44:02 = molecular target: HLA-B*44:02
HLA-B*57:01 = molecular target: HLA-B*57:01
HLA-B*15:01 = molecular target: HLA-B*15:01
HLA-A*11:01 = molecular target: HLA-A*11:01

For EVRKAIEFV, the Kd (HLA-A*01:01) was ≥ 5 µM, the Kd (HLA-A*30:01) was ≥ 5 µM and the Kd (HLA-B*18:01) was ≥ 20 µM. The Kd (HLA-A*02:11) was ≥ 20 µM, the Kd (HLA-B*44:02) was ≥ 5 µM and the Kd (HLA-B*57:01) was ≥ 20 µM. For the same sequence, the Kd (HLA-B*15:01) was ≥ 20 µM and the Kd (HLA-A*11:01) was ≥ 5 µM.
